For 1 sequence, binding results are on record in article PMC8249747.

This data set has as its target T1, QseA (YhcS, AaeR) (Escherichia coli K-12 W3110 type-A) (UniProt P67662).
T1 sequence: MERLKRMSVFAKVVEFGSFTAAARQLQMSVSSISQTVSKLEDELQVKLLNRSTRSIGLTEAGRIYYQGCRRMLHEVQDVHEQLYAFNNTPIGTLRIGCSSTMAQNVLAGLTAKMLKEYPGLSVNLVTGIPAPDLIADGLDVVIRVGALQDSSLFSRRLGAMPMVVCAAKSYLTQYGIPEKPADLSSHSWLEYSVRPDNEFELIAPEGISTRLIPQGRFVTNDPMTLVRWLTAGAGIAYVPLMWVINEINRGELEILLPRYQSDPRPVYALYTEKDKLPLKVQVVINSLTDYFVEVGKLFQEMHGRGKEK
Nature of the data set: EMSA. The following applies: EMSA: gel shift buffer (composition not given), 37 C 30 min, PAGE, GelRed, footprinting: 1.0 pmol FITC probe, 25 C 30 min, 5 ng …. (A gel shift assay detects complexes by their altered migration in electrophoresis.)

Take “GCGTTTTAGTCGTTCCATTATTCACTCTGACTTAAAAGTGATTTAGATCACATAATATAGATAACAGCATAACAGTTACGCTAATATATTAAATATCAATCTACAGCAATGTTGCTCTCGCCCGGCTTTCCATGCCCTTCTCTGCGGCGACAGATGCTGAAAATAATAACGCCTGCTCTCTCTTTACAACCAAGGTCAACATGAGTCTGTTTCCCGTTAT (double strand) [aaeX/qseA spacer probe (gel shift)]”: the binding entry is given as “binds”.
